Measurements: the supplement of paper PMC7125110
± gives the standard error. For some of these results: Fewer inactive variants are shown than the library holds.

B1: glmS ribozyme (parent)
chain: AUAAAAGCGCCAGAACUACAGAAAUGUAGUUGACGAGGAGGAGGUUUAUCGAAUUUUCGGCGGAUGCCUCCAAA

What was measured:
Details in all cases: with glucosamine-6-phosphate
glucosamine-6-phosphate [1] = variants of: B1; assay: kcat; higher = faster cleavage; RNA array
Procedure, shortened: (§1)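 The measurements used barcoded ribozyme variants on sequenced MiSeq chips, transcribed in situ by E. coli RNA polymerase and tracked at 37 °C with a hybridised Cy3 probe. Glucosamine-6-phosphate, 40 μM to 10 mM in HEPES/KCl/Mg(OAc)2 buffer, was flowed in while tiles were imaged over ~14 h. Baseline-normalised signals, also normalised to non-cleaving reference variants, gave per-tile medians that were fit to one- or two-exponential decays for kobs. kcat and KM resulted from weighted Michaelis–Menten fits across concentrations.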

glucosamine-6-phosphate [2] = variants of: B1; assay: KM; higher = weaker cofactor use; RNA array
Procedure, shortened: as §1

glucosamine-6-phosphate [3] = variants of: B1; assay: self-cleavage kobs at 10000 uM GlcN6P; higher = faster cleavage; RNA array
Procedure, shortened: as §1

glucosamine-6-phosphate [4] = variants of: B1; assay: self-cleavage kobs at 160 uM GlcN6P; higher = faster cleavage; RNA array
Procedure, shortened: as §1

glucosamine-6-phosphate [5] = variants of: B1; assay: self-cleavage kobs at 640 uM GlcN6P; higher = faster cleavage; RNA array
Procedure, shortened: as §1

glucosamine-6-phosphate [6] = variants of: B1; assay: self-cleavage kobs at 2500 uM GlcN6P; higher = faster cleavage; RNA array
Procedure, shortened: as §1

glucosamine-6-phosphate [7] = variants of: B1; assay: self-cleavage kobs at 40 uM GlcN6P; higher = faster cleavage; RNA array
Procedure, shortened: as §1

| Variant | kcat (glucosamine-6-phosphate [1]) | KM (glucosamine-6-phosphate [2]) | self-cleavage kobs at 10000 uM GlcN6P (glucosamine-6-phosphate [3]) | self-cleavage kobs at 160 uM GlcN6P (glucosamine-6-phosphate [4]) | self-cleavage kobs at 640 uM GlcN6P (glucosamine-6-phosphate [5]) | self-cleavage kobs at 2500 uM GlcN6P (glucosamine-6-phosphate [6]) | self-cleavage kobs at 40 uM GlcN6P (glucosamine-6-phosphate [7]) |
| --- | --- | --- | --- | --- | --- | --- | --- |
| C58A C61A C70U | 1.3e-05 ± 1.9e-06 s⁻¹ | – | – | – | – | – | – |
| A42U C70G | 2.5e-05 ± 2e-06 s⁻¹ | 979 ± 380 µM | 2.35e-05 ± 9.3e-06 s⁻¹ | – | – | – | – |
| A33C U55A | 0.000974 ± 0.00015 s⁻¹ | 3160 ± 940 µM | 0.000717 ± 7.8e-05 s⁻¹ | 3.03e-05 ± 1.4e-05 s⁻¹ | 0.000183 ± 3.5e-05 s⁻¹ | 0.000519 ± 9.2e-05 s⁻¹ | – |
| U54G C58U C67U | 4.43e-05 ± 9.6e-06 s⁻¹ | – | 3.78e-05 ± 1.2e-05 s⁻¹ | – | – | 5.48e-05 ± 1.7e-05 s⁻¹ | – |
| A14C G29A | 0.000725 ± 5.3e-05 s⁻¹ | 2290 ± 270 µM | 0.00058 ± 9.2e-05 s⁻¹ | 4.05e-05 ± 1.5e-05 s⁻¹ | 0.000166 ± 2.4e-05 s⁻¹ | 0.000389 ± 9.3e-05 s⁻¹ | – |
| U30C U55C | 0.000295 ± 3.2e-05 s⁻¹ | 1490 ± 290 µM | 0.000281 ± 3.9e-05 s⁻¹ | 3.54e-05 ± 9.7e-06 s⁻¹ | 8.83e-05 ± 8.8e-06 s⁻¹ | 0.000167 ± 2.4e-05 s⁻¹ | – |
| G32U C58G | 0.00149 ± 0.00016 s⁻¹ | 8790 ± 1300 µM | 0.000802 ± 9.7e-05 s⁻¹ | 3.01e-05 ± 9.4e-06 s⁻¹ | 0.000102 ± 1.7e-05 s⁻¹ | 0.000294 ± 7.3e-05 s⁻¹ | – |
| G13C C58A C61U C70G | 1.31e-05 ± 2.2e-06 s⁻¹ | – | – | – | – | – | – |
| C16G U54C | 0.00528 ± 0.0015 s⁻¹ | 3350 ± 1400 µM | 0.00397 ± 0.00058 s⁻¹ | 0.000157 ± 5.6e-05 s⁻¹ | 0.000745 ± 0.00019 s⁻¹ | 0.00247 ± 0.00064 s⁻¹ | 9.28e-05 ± 1.6e-05 s⁻¹ |
| A15C C16A | 0.00213 ± 0.00077 s⁻¹ | – | 0.00248 ± 0.00031 s⁻¹ | 0.000139 ± 3e-05 s⁻¹ | 0.000522 ± 8e-05 s⁻¹ | 0.000888 ± 0.00013 s⁻¹ | 5.77e-05 ± 8.7e-06 s⁻¹ |
| A15U C70A | 6.56e-05 ± 1e-05 s⁻¹ | – | 4.87e-05 ± 1.1e-05 s⁻¹ | – | 3.49e-05 ± 1.2e-05 s⁻¹ | 6.73e-05 ± 7e-06 s⁻¹ | – |
| A53G U65G | 0.00217 ± 0.00093 s⁻¹ | – | – | 0.000202 ± 4e-05 s⁻¹ | 0.000884 ± 0.00018 s⁻¹ | 0.00134 ± 0.00033 s⁻¹ | 9.01e-05 ± 2.5e-05 s⁻¹ |
| C10A G32U A53U C67U | 1.23e-05 ± 4.1e-06 s⁻¹ | – | – | – | – | – | – |
| U47A C70G | 0.000131 ± 1.7e-05 s⁻¹ | – | 0.000128 ± 2.5e-05 s⁻¹ | 9.75e-05 ± 2.2e-05 s⁻¹ | 0.00011 ± 1.3e-05 s⁻¹ | – | – |
| U31G U56C | 0.000772 ± 3.5e-05 s⁻¹ | 2210 ± 180 µM | 0.000628 ± 9.2e-05 s⁻¹ | 4.9e-05 ± 1.7e-05 s⁻¹ | 0.000179 ± 2.9e-05 s⁻¹ | 0.000413 ± 0.00012 s⁻¹ | – |
| G13C G32U | 0.000576 ± 4.2e-05 s⁻¹ | 3170 ± 470 µM | 0.000436 ± 7.7e-05 s⁻¹ | – | 8.34e-05 ± 4.1e-05 s⁻¹ | 0.000258 ± 5.7e-05 s⁻¹ | – |
| G62A | < 1e-05 s⁻¹ | – | < 1e-05 s⁻¹ | – | – | – | < 1e-05 s⁻¹ |
